{"source": "IntAct's records for PubMed 9499404", "parents": {"B1": {"name": "Cell division control protein 53 (Saccharomyces cerevisiae), Q12018 (parent)", "chain": "MSETLPRSDDLEATWNFIEPGINQILGNEKNQASTSKRVYKILSPTMYMEVYTAIYNYCVNKSRSSGHFSTDSRTGQSTILVGSEIYEKLKNYLKNYILNFKQSNSETFLQFYVKRWKRFTIGAIFLNHAFDYMNRYWVQKERSDGKRHIFDVNTLCLMTWKEVMFDPSKDVLINELLDQVTLGREGQIIQRSNISTAIKSLVALGIDPQDLKKLNLNVYIQVFEKPFLKKTQEYYTQYTNDYLEKHSVTEYIFEAHEIIKREEKAMTIYWDDHTKKPLSMALNKVLITDHIEKLENEFVVLLDARDIEKITSLYALIRRDFTLIPRMASVFENYVKKTGENEISSLLAMHKHNIMKNENANPKKLALMTAHSLSPKDYIKKLLEVHDIFSKIFNESFPDDIPLAKALDNACGAFININEFALPAGSPKSATSKTSEMLAKYSDILLKKATKPEVASDMSDEDIITIFKYLTDKDAFETHYRRLFAKRLIHGTSTSAEDEENIIQRLQAANSMEYTGKITKMFQDIRLSKILEDDFAVALKNEPDYSKAKYPDLQPFVLAENMWPFSYQEVEFKLPKELVPSHEKLKESYSQKHNGRILKWLWPLCRGELKADIGKPGRMPFNFTVTLFQMAILLLYNDADVLTLENIQEGTSLTIQHIAAAMVPFIKFKLIQQVPPGLDALVKPETQFKLSRPYKALKTNINFASGVKNDILQSLSGGGHDNHGNKLGNKRLTEDERIEKELNTERQIFLEACIVRIMKAKRNLPHTTLVNECIAQSHQRFNAKVSMVKRAIDSLIQKGYLQRGDDGESYAYLA", "partner": "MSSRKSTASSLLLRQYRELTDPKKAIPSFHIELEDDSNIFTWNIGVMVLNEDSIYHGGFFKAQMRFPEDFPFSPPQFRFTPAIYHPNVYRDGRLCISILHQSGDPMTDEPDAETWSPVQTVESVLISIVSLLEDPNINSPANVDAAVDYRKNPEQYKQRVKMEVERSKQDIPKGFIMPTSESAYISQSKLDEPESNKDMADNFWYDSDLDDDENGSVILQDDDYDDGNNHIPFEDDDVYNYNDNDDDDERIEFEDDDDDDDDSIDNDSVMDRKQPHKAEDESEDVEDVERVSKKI"}}, "data": [{"variants_of": "B1", "details": "with ubc3_yeast CDC34, P14682", "values": [{"variant": "R488C", "effect of a mutation on the interaction": "disrupting interaction"}]}]}
